Measured values taken from PMC10968383 (Bioengineering, 2024).

Columns and labels:
[1] = target: T1, full-length PrPc displayed on 293T cells (293T-PrPc) (Homo sapiens (Human)., UniProt P04156)
PrPc-35aa = PrPc-35aa (Homo sapiens (Human).); assay: BLI; settings: both partners purified
[2] = target: T1, full-length PrPc displayed on 293T …; assay: Western blotting; settings: one partner purified

B1: HAb 6b (antibody, V domains shown)
VH: EVQLVQSGAEVKKPGATVKMSCKASGYTFTDYYMKWVKQAPGKGLEWIGDINPNNGDTFYNEKFQGRATLTVDKSTNTAYMELSSLRSEDTAVYYCAKPGRTYWGQGTLVTVS
VL: DIVLTQSPDSLAVSLGERVTMSCKSSQSLLDSGNQKNYLVWYQQKPGQPPKLLIYGASTRESGVPDRFSGSGSGTDFTLTISSVQAEDVAVYYCQNDHSYPLTFGAGTKLELK
B1: binds [1].

B2: HAb 6c (antibody, V domains shown)
VH: EVQLVQSGAEVKKPGATVKISCKASGYTFTDYYMKWVQQAPGKGLEWMGLVNPNNGDTFYNEKFQGRVTITVDKSTNTAYMELSSLRSEDTAVYYCATPGRTYWGQGTLVTVS
VL: DIVLTQSPDSLAVSLGERATISCKSSQSLLDSGNQKNYLVWYQQKPGQPPKLLIYGASTRESGVPDRFSGSGSGTDFTLTISSLQAEDVAVYYCQNDHSYPLTFGAGTKLELK
B2: binds [1].

B3: Clone 6 (antibody, V domains shown)
VH: EVQLQQSGPELVKPGASVKMSCKASGYTFTDYYMKWVKQSHGKSLEWIGDINPNNGDTFYNQKFKGKATLTVDKSSNTAYMQLNSLTSEDSAVYYCAKPGRTYWGQGTLVTVS
VL: DIVLTQSPSSLSVSAGEKVTMSCKSSQSLLDSGNQKNYLVWYQQKPGQPPKLLIYGASTRESGVPDRFTGSGSGTDFTLTISSVQPEDLAVYYCQNDHSYPLTFGAGTKLELK
notes: also called murine anti-PrPc antibody Clone 6; full-length Clone 6 antibody; source: 293F cells, purified with protein A column
Binder B3 has a Kd (PrPc-35aa) of 0.314 nM.

B4: HAb 6 (antibody, V domains shown)
VH: EVQLVQSGAEVKKPGATVKMSCKASGYTFTDYYMKWVKQAPGKSLEWIGDINPNNGDTFYNQKFQGRATLTVDKSSNTAYMELSSLRSEDTAVYYCAKPGRTYWGQGTLVTVS
VL: DIVLTQSPDSLAVSLGERVTMSCKSSQSLLDSGNQKNYLVWYQQKPGQPPKLLIYGASTRESGVPDRFTGSGSGTDFTLTISSVQAEDVAVYYCQNDHSYPLTFGAGTKLELK
notes: IgG1; also called humanized antibody HAb 6; wild-type antibody; source: 293F cells, purified with protein A column
For B4, the Kd (PrPc-35aa) was 2.92 nM.

B5: 4AA (antibody, V domains shown)
VH: EVQLVQSGAEVKKPGDTVKMSCKASGYTFTDYYMKWVKQAPGKAPGKSLEWIGDINPNNGDTFYNQKFQGRATLTVDKSSNTAYMELSSLRSEDTAVYYCVKPGRTYWGQGTLVTVS
VL: DIVLTQSPDSLAVSLGERVTMSCKSSQSLLDSGNQKNYLVWYQQKPGQPPKLLIYGASTRESGVPDRFTGSGSGTDFTLTISSVQAEDVAVYYCQNDHSYPLTFGAGTKLELK
notes: IgG1
With B5 the Kd (PrPc-35aa) was 0.281 nM.

B6: 4AA-m (antibody, V domains shown)
VH: EVQLVQSGAEVKKPGDTVKMSCKASGYTFTDYYMKWVKQAPGKAPGKSLEWIGDINPNNGDTFYNQKFQGRATLTVDKSSNTAYMELSSLRSEDTAVYYCVKPGRTYWGQGTLVTVS
VL: DIVLTQSPDSLAVSLGERVTMSCKSSQSLLDSGNQKNYLVWYQQKPGQPPKLLIYGASTRESGVPDRFTGSGSGTDFTLTISSVQAEDVAVYYCQNDHSYPLTFGAGTKLELK
notes: also called recombinant 4AA-m; source: 293F cells, purified with protein A column (said of the antibodies in general)
B6 was tested, and the “Western blot signal on the 5 μg lysate, fold of that with 3F4” value [2] was 3 fold and the “Western blot signal on the 5 μg lysate, fold of that with 8H4” value [2] was 9 fold.
